One molecule from patent US20240270860A1 can be followed below.

The target of this assay is T1, S03933.
T1 chain: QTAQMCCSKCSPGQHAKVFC
Nature of the assay: linear peptide ELISA; Affinity +. The note with it: remark: other sources report otherwise. (An ELISA detects its analyte on a solid surface through an enzyme-linked reagent.)

B1: antagonistic TNFR2 antibody TNFRAB1 (antibody, V domains shown)
VH: EVQLQESGGGLVKPGGSLKLSCAASGFTFSSYVMSWVRQTPEKRLEWVATISSGGSYTYYPDSVKGRFTISRDNAKNTLYLQMSSLRSEDTAMYYCARQRVDGYSSYWYFDVWGAGTAVTVSS
VL: DIVLTQSPAIMSASPGEKVTITCSASSSVYYMYWFQQKPGTSPKLWIYSTSNLASGVPVRFSGSGSGTSYSLTISRMEAEDAATYYCQQRRNYPYTFGGGTKLEIKRA
Regarding B1, the Reading stood at 0.1.
